Data: patent US20260265347A1

Biological target: biotinylated VP1 pentamer of BKV genotype I (BK virus genotype I) (UniProt P03088)
Assay: BLI, biotinylated VP1 pentamer on streptavidin sensor, mAb 0 to 40 nM

For “MTX005 from Memo Therapeutics AG (referred as 319C07 in WO2021/250097) (antibody)”, the Kd was 17.9 nM.
